Patent CN1997751A (AGENSYS INC, dated 2007)

T1: PSCA (prostate stem cell antigen), human, PSCA v.1 (human, UniProt O43653 12-83)
T1 construct: whole, on cells; also called PSCA变体1; 人PSCA
T1 sequence (looked up): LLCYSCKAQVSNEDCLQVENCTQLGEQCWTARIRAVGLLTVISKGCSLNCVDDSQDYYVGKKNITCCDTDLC

B1: Ha1-4.37 (antibody, V domains shown)
VH: PGALQESGPGLVRPSQTLSLTCTVSGGSISSGGTYYWIWIRQHPGKGLEWIGYIYYSGSTYYNPSLKSRVTISVDTSKNQFSLKLSSVTAADTAVYYCARDGITMVRGISGGMDVWGQGTTVTVSS
VL: ASVGDRVTITCRASQSISSHLNWYQQKPGKAPKLLIYAASSLQSGVPSRFSGSGSGTDFTLSISSLQPEDFATYFCQQSYSIPRTFGQGTKVEITR
notes: ATCC PTA-6702
B2: Ha1-5.99 (antibody, IgG2, V domains shown)
VH: QVHLQQWGAGLLKPSETLSLTCAVYGGSFSGYYWSWIRQPPGKGLEWIGEINHSGSTSYKPSLKSRVTVSVDTSKNQFSLKLSYVTAADTAVYYCARDRGDYGDFLFDYWGQGTLVTVSS
VL: SPGERATLSCRASQSIGSTYLAWYQQKPGQAPRLLIYGASSRATGIPERFSGSGSGTDFTLTISGLEPEDFAVFYCQQCGSSPPTFGQGTKVEIKR
notes: ATCC PTA-6703; also called Ha1-5.99.1; HA1-5.99.1
B3: Ha1-4.117 (antibody, V domains shown)
VH: QVQLQESGPGLVKPSQTLSLTCTVSGGSISSGGYYWIWIRQHPGKGLEWIGYIYYNGNTYYNPSLKSRVTMSVDTSKNQFSLKLSSVTAADTAVYYCARDGITMIRGYYYGMDVWGQGTTVTVSS
VL: QLTQSPSSVSASVGDRVTITCRASRGISSWLAWYQQKPGKAPKLLIYTASSLQSGVPSRFSGSGSGTDFTLTISSLQPEDFATYYCQQAYSFPRTFGQGTKVEIKR
B4: Ha1-1.16 (antibody, V domains shown)
VH: QVQLQQSGPGLVKPSQTLSLTCAISGDSVSSNSAAWNWIRQSPSRGLEWLGRTYYRSKWYNGYAVSVKSRMTINPDTSKNQFSLQLNSVTPEDTAVYYCARERLGELYGMDVWGQGTTVTVSS
VL: QLTQSPDSLAVSLGERATINCKSSQNILYRSSKKNHLVWYQQKPGQPPKLLIYWASTRESGVPARFSGSGSGTDFTLTISTLQAEDVAVYYCQQYYSTPPTFGQGTRLEIKR
notes: ATCC PTA-6698; also called Ha1-1.16.1

Each binder was assayed against T1, PSCA (prostate stem cell antigen), … (assay: FACS titration on SW780 cells, sigmoidal dose-response fit (Graphpad Prism)).
B1 was tested, and the Kd was 230 pM.
Binder B2 has a Kd of 280 pM.
Binder B3 has a Kd of 320 pM.
B4 showed a Kd of 6910 pM.
